What all share (test): EMSA
Holding throughout (details): 12 mM HEPES-KOH pH 7.6, 10 mM MgCl2, 200 mM NaCl, 4 mM Na2HPO4, 4 mM NaH2PO4, 0.4 mM EDTA, 1 mM DTT, 0.5% BSA, 10% glycerol, 200-fold poly(dI-dC), 1 nM DNA …

The test system of data set [1] is AraR Y5F (Bacillus subtilis).
The subject of data set [2] is AraR WT (Bacillus subtilis).
The subject of data set [3] is AraR E30A (Bacillus subtilis).
In data set [4] the target is AraR E30A E30A (Bacillus subtilis) (UniProt P96711).
The target in data set [5] is AraR WT (Bacillus subtilis) (UniProt P96711).
The target of data set [6] is AraR Y5F Y5F (Bacillus subtilis) (UniProt P96711).

These results are taken from paper PMC4218819.

For orientation: Kd means the constant that tells how readily two partners part at equilibrium. ORA1 T16->G: the figures for the Kd in data set [1], in data set [2] and in data set [3] were 35.5 10^-8 M, 11 10^-8 M and 34.7 10^-8 M, respectively.
As to ORA1 A1->C, the values for the Kd in data set [1], in data set [2] and in data set [3] were 33.1 10^-8 M, 7.4 10^-8 M and 67.5 10^-8 M, respectively.
The like results for ORA1 G5->T were, in that order, > 200 10^-8 M, 34.5 10^-8 M and 74.8 10^-8 M.
On to “GATTGACAGTATAATAGTCAATTACTATAATAAAATTGTTCGTACAAATATTTATTTATAGGTTTATTTTCTATCATTAGTACGTATCTTTTGTATTTGAAAGCGTTTTATTTTATGAGAAAGGG (double strand) [araABDLMNPQ-abfA promoter ORA1-ORA2 WT]”, for which the figures for the Kd in data set [4], in data set [5] and in data set [6] were 198 nM, 27 nM and 274 nM, respectively.
Turning to “GATTGACAGTATAATAGTCAATTACTATAATAAAATTTTTCGTACAAATATTTATTTATAGGTTTATTTTCTATCATTAGTACGTATCTTTTGTATTTGAAAGCGTTTTATTTTATGAGAAAGGG (double strand) [ORA1 G5->T]”, the Kd turned out to be 748 nM in data set [4] and 345 nM in data set [5].
For the substance “GATTGACAGTATAATAGTCAATTACTATAATAACATTGTTCGTACAAATATTTATTTATAGGTTTATTTTCTATCATTAGTACGTATCTTTTGTATTTGAAAGCGTTTTATTTTATGAGAAAGGG (double strand) [ORA1 A1->C]”, the figures for the dissociation constant (Kd) in data set [4], in data set [5] and in data set [6] were 675 nM, 74 nM and 331 nM, respectively.
For “GATTGACAGTATAATAGTCAATTACTATAATAAAATTGGTCGTACAAATATTTATTTATAGGTTTATTTTCTATCATTAGTACGTATCTTTTGTATTTGAAAGCGTTTTATTTTATGAGAAAGGG (double strand) [ORA1 T6->G]”, the Kd was determined as 254 nM in data set [4], 56 nM in data set [5] and 476 nM in data set [6].
For the substance “GATTGACAGTATAATAGTCAATTACTATAATAAAATTGTTCGTACAAAGATTTATTTATAGGTTTATTTTCTATCATTAGTACGTATCTTTTGTATTTGAAAGCGTTTTATTTTATGAGAAAGGG (double strand) [ORA1 T16->G]”, the figures for the Kd in data set [4], in data set [5] and in data set [6] were 347 nM, 110 nM and 355 nM, respectively.
On to ORA1 T6->G, for which the Kd in data set [1] is 47.6 10^-8 M; in data set [2] it was 5.6 10^-8 M; in data set [3], 25.4 10^-8 M.
In the same order, the values of araABDLMNPQ-abfA promoter ORA1-ORA2 WT are 27.4 10^-8 M, 2.7 10^-8 M and 19.8 10^-8 M.
